Reference: paper PMC2629542

Molecular target: DraE R86G (E. coli)
Test: SPR

With N-domain of CEA (domain or fragment) the fold decrease in affinity against DraE was over 7 fold.
